Experimental data: the nanobody polyreactivity screen of Harvey et al. (2022)

Assay: yeast display, Sf9 membrane polyspecificity reagent, FACS + sequencing; frameworks hold sequencing errors
How it was run: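 Nanobodies from a synthetic yeast display library (Saccharomyces cerevisiae BJ5465), induced 36–48 hours with galactose, were stained 1 hour at 4 °C with 10% biotinylated, detergent-solubilized Sf9 membrane reagent, enriched on streptavidin microbeads, then FACS-sorted. Anti-HA (expression) and streptavidin (reagent binding) fluorescence set low and high (top ~1%) gates. Polyreactivity labels come from the gate of origin. Genes were colony-PCR amplified, MiSeq 2 × 250 sequenced and filtered by CDR length.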

Sequence	polyreactivity (PSR sort gate)
QVQLVESGGGLVQAGGSLRLSCAASGSIFASYAMGRYRQAPGKERELVAAISRSGGSTYYADSVKGRFTISRDNAKNTVYLQMNSLKPEDTAVYYCATGKIREDDYWGQGTQVTVSS	high polyreactivity
QVQLVESGGGLVQAGGSLRLSCAASGSIFYENDMGWYRQAPGKERELVAAISSGGTTNYADSVKGRFTISRDNAKNTVYLQMNSLKPEDTAVYYCAAEYPSVYYERFDYWGQGTQVTVSS	low polyreactivity
QVQLVESGVGLVQAGGSLRLSCAASGLILRKYAKGWYSQAPGKEREFVAAITQTGSRTYYADSVKGRFTISRDNAKNTVYLQMNSLKPEDTAVYYCNAVNYRSSRDSGYWGQGTQVTVSS	high polyreactivity
QVQLVESGGGFVQAGGSLRLSCAASGFSFGYSAMGWYRQAPGKERELVAAINNADSTYYADSVKGRFPISRDNAKNTVYLQMNSLKPEDTAVYYCAAVVDYGWWLAYDYWGQGTQVTVSS	high polyreactivity
QDQLVESGVGLVQAGGSLRLSCAASGFTFTRNAMGWYRQAPGKEREFVAAITRSGGSTYYADSVKGRFTISRDNAKNTVYLQMNSLKPEDTAVYYCAAEVSSFLYTPSYSTDDYWGQGTQVTVSS	high polyreactivity
QVQLVESGGGLVQAGGSLRLSCAASGITFRQNTMGSYRQAPGKEGELVAAITSSGRTYYADSVKGRFTISRDNAKNTVYLQMNSLKPEDSAVYYCAADTYYFGYGYWGQGTQVTVSS	high polyreactivity
QVQLVESGGGLVQAGGSLRLSCAASGGTFNTNAMGWYRQAPGKERELVATIRGGVITTYADSVKGRFTISRDNAKNTVYLQMNSLKPEDTAVYYCAVDDLRGYDYWGQGTQVTVSS	low polyreactivity
QVQLVESGGGLVQAGGSLRLSCAASGFTFYDYAMGWYRQAPGKERELVAAISSGTSTYYADSVKGRFTISRDNAKNTVYLQMNSLKPEDTAVYYCAAAGNRPWSITPVRKRYGYNYWGQGTQVTVSS	high polyreactivity
QVQLVESGGGLVQAGGSLRLSCAASGSIFRGNAMGWYIQAPGKERELVAGINRAGSTKYADSVKGRFTISRDNAKNTVYLQMNSLKPEDTAVYYCAAVRYVRCLWSDYWGQGTKVTVSS	high polyreactivity
QVQLVESGGGLVQAGGSLRLSCAASGFTFHWYAMGWYRQAPGKERELVAAISSGSSTYYADSVKGRFTISRDNAKNTVYLQMKSLKPEDTAVYYCNVVLYKYSPTESWITYDYWGQGTQVTVSS	low polyreactivity
QVQLVESGGGLVQAGGSLRLSCAASGSIFAINAMGWYRQAPGKERELVAAIRRRDGNTYYADSVKGRFTISRDNAKNSVYLQMNSLKPEDTAVYYCNTYSRRTSVIAYRYNYWGQGTQVTVSS	high polyreactivity
QVQLVESGGGLVQAGGSLRLSCAASGIIFTYNAMGWSRQAPGKERELVAAINSSGGSTNYADSVKGRFTISRDNAKNTVYLQMNSLKPEDTAVYYCAARDATYYGVWRYYGIDDYWGQGTQVTVSS	low polyreactivity
QVQLVESGGGLVQAGGSLRLTCAASGSIFVNNAMGWYRQAPGKERELVAAISSRSSRTFYADSVKGRFTISRDNAKNTVYLQMNSLKPEDTAVYYCAVKKRAPDGDYWGQGTQVTVSS	high polyreactivity
QVQLVESGGGLVQAGGSLRLSCAASGSTFKSYAMGWYRQAPGKERELVAAISYRGGSTYYADSVKGRFTISRDNAKNTVYLQMNSLKPEDTAVYYCAAVKLYSYYYWGQGTQVTVSS	high polyreactivity
QVQLVESGGGLVQAGGSLRLSCAASGRIFGHYAMGWYRQAPGKERELVAAISQSGTNTYYADSVKGRFTISRDNAKNTVYLQMNSLKPEDTAVYYCAAKPPRRYQLMDYWGQGTQVTVSS	high polyreactivity
QVQLVESGGGLVQAGGSLRLSCAATGRTFAVYAMGWYRQAPGKERELVAAISSGGSTYYADSVKGRFTIARDNAKNTVYLQMNSLKPEDTAVYYCTARWGYRRGYWGQGTQVTVSS	high polyreactivity
QVQLVESGGGLFQEGGSLRLSCAASGSIFTFYAMGWYRQAPGKERELVAAITSGGSTTYADSVKGRFTISRDNAKNTVYLQMNSLKREDTAVFYCNAESWWGYYYWGQVTQVTVSS	high polyreactivity
QVQLVESGGGLVQAGGSLRLSCAASGSTFTINVMGWYRQSPGKERELVAAINGGGRTNYADSVKGRFTISRDNAKNTVYLQMNSLKPEDTAVYYCAADGLSNVRQMDYWGQGTQVTVSS	low polyreactivity
QVQLVESGGGLVQAGGSLRLSCAASGTFQYNAMGWYRQAPGKERELLAAITSGGSTNYADSVKGRFTISRDNAKNTVYLQMNSLKPEDTAVYYCAAVRRYRASRGSLYYYWGQGTQVTVSS	high polyreactivity
QVQLVESGGGLVQAGGRLLLICAASGRIFIANAMGWYSKAPGKERELVATISRSGVSTNYADSVKVRFTISRDNAKNSVYLQMNSLKPEDTAVYYCADIRSGGQGQGYGYWGQVTQVTVSS	high polyreactivity
QVQLEESGGGLVQAGGSLRLSCAASGFIVYYYAMGWYRQAPGKERELVAAISSGDRTYYADSVKGRFTISRDNAKNTVYLQMNSLKREDTAVYYCNALSRNTQLYDYWGQGTQVTVSS	high polyreactivity
QVQLVESGGGLVQAGGSLRLSCAASGYIFKPNTMGWYRQAPGKERELVAAITRGGRTKYADSVKGRFTISRDNAKNTVYLQMNSLKPEATAVYYCNKVRTVTTYEYWGQGTQVTVSS	high polyreactivity

Sequence	polyreactivity (PSR sort gate)
QVQLVESGGGLVQAGGSLRLSCAASGSTFRQYSMGWYRQAPGKERELVAAISWSGGSTYYADSVKGRFTISRDNAKNTVYLQMNSLKPEDTAVYYCAAGRGGHRYKVGYWGQGTQVTVSS	high polyreactivity
QVQLVESGGGLVQAGGSLRLSCAASGSIFPLNAMGWYRQAPGKERELVATISWRGGITYYADSVKGRFTISRDNAKNTVYLQMNSLKPEDTAVYYCATVGRWNSLWYRYRYDYWGQGTQVTVSS	low polyreactivity
QVQLVESGGGVVQAGGSLRLSCAASGRICAYYTMGWYRQAPGKERELVAAINQSGGSTYYADSVKGRFTISRDNAKYTEYLQMNSLKPEDTAVFYCAAQPTIYSTPHPEYNYWGQGTQVNVSS	low polyreactivity
QVQLVESGGALVQAGGRLLLSCAASGRTFQGYVMGWYRQAPGKERELVAAISRGTSTYYADSVKGRFTISRDNAKNTVYLQMNSLKPEDTAGYYCAADGERRHYWGQGTQVTVSS	low polyreactivity
QVQLVESGGGLVQAGRSLRLSCAASGSIFAWYGMGWYRQAPGKERELFAAISTDGSTNYADSVKGRFTISRDNAKNSVYLQMISLKREDTAVYYCAKKSSLYYPERFDYWGQGTQGTVSS	low polyreactivity
QVQLVESGGGLVQAGGSLRLSCAASGRIFTVNTMGWYREAPGKERELVASIRGGGSTNYADSVKGRFTISRDNAKNTVYLQMNSLKPEDTAVYYCAAGTSKPTPIYGYWGQGTQVPVSS	low polyreactivity
QVQLVESGGGLVQAGGTLRLSCAASGSTSSNNAMGWYRQAPGKARELVADISTNGDSTSYADSVKGRFTISRDNAKNPVYLLMNSLKPEDTAVYYSAASTYVTYWEYDYWGQGTQVTVSS	low polyreactivity
QVQLVESGGGLVQAGGSLRLSCAASGSTFDVYAMGWYRQAPGKERELVAAITWDGDRTYYADSVKGRFTISRDNAKNTVYLQMNSLKPEDTAVYYCNVDTYVEYPHDYWGQGTQVTVSS	low polyreactivity
QVQLVESGGGLVQAGGSLRLSCAASGRTFRTYVMGWYRQAPGKEREFVAGITWSSGSTRYADSVKGRFTISRDNAKNTVYLQMNSLKPEDTAVYYCAAKRWPGTDGYWGQGTQVTVSS	high polyreactivity
QVQLVESGGGLVQAGGSRRLSCAASGRIFLGYTMGWYRQAPGKERELVAAISKSGDSTYYADSVKGRFTISRDNAKNTVYLQMNSLKPEDTAVYYCAAKRYRVGYGYWGQGTQVTVSS	high polyreactivity
QVQLVESRGGLVQAGGSLRLSCAASGFTFIGYAMGWYRPEPGKERELVAPITQSGGSTFYADSVKGRFTISRENAKNTVYLQMNSLKPEDTAVDDCNAYRKFRYCGQGTQVTVSS	low polyreactivity
QVQLVESGGGLVQAGGRLRLSCAASGSTFIDYAMGWYRPAPGKERELVAAITNGGNTKYADSVKGRFTISRDNAKNTVYLQMKSLKPEDTSVDYCSREPSIFTSSYDYWGQGTQVTVSS	low polyreactivity
QVQLVESAGGLVQAGGSLRLSCAATGFTFYTYAMGWYRQAPGKERELVADISSGGSTNYADSVKGRFTISRDNAKNTVYLQMNSLKPEDTAVYYSSAVYYFLDWYDYWGQGTQVNVSS	low polyreactivity
QVQLVESGGGLVQAGGSLRLSCAASGSIFGGYAMGWYRQAPGKERELVAAISSSGVRTYYADSVKGRFTISRDNAKNTVYLQMNSLKPEDTAVYYCAADRSRSIIPFDYWGQGTQVTVSS	low polyreactivity
QVQLVESGGGLVQAGGSLRLSCAASGITFQRYAMGWYRQAPGKERELVAAISWSGGSTYYADSVKGRFTISRDNAKNTVYLQMNSLKPVDTAVYYCAAELSVSTSHGVDYWGQGTQVTVSS	high polyreactivity
QVQLVESGGGLVQAGGSLRLSYAASGSTFRVYAMGWYRPATGKERELVAAISRSGGRTYYADSVKGRFTISRDNAKNTVYLQMNSLKPEDTAVYYCAADYKYTAVSDDYWGQGTQVTVSS	high polyreactivity
QVQLVESGGGLVQAGGSLRLSCAASGFIYVYNAMGWYRKAPGKEREFVAGISRSGGNTYYADSVKGRFTISRDNAKNTVYLQMNSLKPEDTAVYYCAVVNRRFGFPNVALRSNYGDYWGQGTQVTVSS	low polyreactivity
QVQLVESGGGLVQAGGSLRLSCDASGFIFWWYAMGWYRQAPGKEREFVAYISWSGARTYYADSVKGRFTISRDNAKNTVYLLMNSLKQEDTAVYYCNADRIGRYYQSYGGGHMDYWGQGTQVNVSS	high polyreactivity
QVQLVESAGRLVQAGGSLRLSCAPSGSIFSHNAMGWYRPAPGKERELVAAISRSGGSTYYADSVKGRFTISRDNAKNTVYLQMNSQKPEDTAVYYCNALGRISNHTLYDYWGQGTQVTVSS	low polyreactivity
QVQLVESGGGLVQAGGSLRLSCAASGITFNYNAMGWYRQAPGKERELVARITWSGTRTYYADSVKGRFTISRDNSKNTVYFQMNSLKPEDTAVYYCNAGPYARYYWGQGTQVTVSS	high polyreactivity
QVQLVESGGGLVQAGGSLRLTCAASGRIFPRNTMGWYRQAPGKERELVAAISVSGGSTYYADSVKGRFTNSRDNAKNTVYLQMNSLKPEDTAVYYWAARSARLEYYYWGQGTQVTVSS	high polyreactivity
